Laboratory results published in article PMC11980593.

Biological target: hexahistidine-tagged VapD toxin from Campylobacter jejuni (VapD^Cje) (Campylobacter jejuni)
Assay: crystal structure; co-expressed and co-purified VapD-VapW complex; sitting drop at 20°C, 20% PEG 1000, 100 mM sodium phosphate dibasic/citric acid pH 4.2, 200 mM lithium sulfate; space group C 2 2 21; 1.95 Å

Substance: strep-tagged VapW antitoxin from Campylobacter jejuni (VapW^Cje) (natural protein)
- stoichiometry N (VapD per VapW (2:2)): 1
